Assay in all cases: protein array
Experiment [1] concerns the target T1, microtubule associated protein RP/EB family member 2, transcript variant 1 (human, UniProt Q15555 1-327).
T1 construct: on protein array; also called MAPRE2

The target in experiment [2] is T2, interleukin 27 receptor subunit alpha (human, UniProt Q6UWB1 33-636).
T2 construct: on protein array; also called IL27RA
T2 sequence: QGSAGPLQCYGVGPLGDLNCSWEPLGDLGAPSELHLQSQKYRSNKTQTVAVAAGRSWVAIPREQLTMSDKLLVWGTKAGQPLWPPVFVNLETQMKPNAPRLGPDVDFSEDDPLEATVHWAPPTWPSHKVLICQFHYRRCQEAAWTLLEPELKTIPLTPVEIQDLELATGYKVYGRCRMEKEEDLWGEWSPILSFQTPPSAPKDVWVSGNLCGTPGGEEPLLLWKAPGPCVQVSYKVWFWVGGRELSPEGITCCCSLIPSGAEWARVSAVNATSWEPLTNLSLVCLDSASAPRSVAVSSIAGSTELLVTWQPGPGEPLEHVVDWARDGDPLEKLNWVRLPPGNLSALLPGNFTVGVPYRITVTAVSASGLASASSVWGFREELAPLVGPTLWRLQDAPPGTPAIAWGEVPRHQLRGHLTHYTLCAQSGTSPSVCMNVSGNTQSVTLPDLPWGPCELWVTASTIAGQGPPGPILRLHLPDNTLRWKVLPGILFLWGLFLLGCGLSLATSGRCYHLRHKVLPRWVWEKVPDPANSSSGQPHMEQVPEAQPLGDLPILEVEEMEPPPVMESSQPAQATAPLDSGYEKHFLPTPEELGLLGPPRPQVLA

The target in experiment [3] is T3, rhophilin associated tail protein 1 like, transcript variant 2 (human, UniProt Q96C74 1-230).
T3 construct: on protein array; also called ROPN1L
T3 sequence: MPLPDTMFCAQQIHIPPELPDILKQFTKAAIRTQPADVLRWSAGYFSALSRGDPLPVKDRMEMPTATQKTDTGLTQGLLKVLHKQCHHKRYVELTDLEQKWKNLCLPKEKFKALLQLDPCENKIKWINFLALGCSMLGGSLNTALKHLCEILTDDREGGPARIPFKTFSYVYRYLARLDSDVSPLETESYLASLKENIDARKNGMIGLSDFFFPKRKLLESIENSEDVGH

The target in experiment [4] is T4, Dpy-30 histone methyltransferase complex regulatory subunit (human, UniProt Q9C005 1-99).
T4 construct: on protein array
T4 sequence (Q9C005 whole entry, one chain of several): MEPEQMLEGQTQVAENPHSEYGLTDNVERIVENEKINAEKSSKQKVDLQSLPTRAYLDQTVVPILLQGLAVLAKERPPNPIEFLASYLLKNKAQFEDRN

In experiment [5] the target is T5, microfibril associated protein 3, transcript variant 3 (human, UniProt P55082 19-362).
T5 construct: on protein array; also called MFAP3
T5 sequence (P55082 19-362 limits assumed, change not shown): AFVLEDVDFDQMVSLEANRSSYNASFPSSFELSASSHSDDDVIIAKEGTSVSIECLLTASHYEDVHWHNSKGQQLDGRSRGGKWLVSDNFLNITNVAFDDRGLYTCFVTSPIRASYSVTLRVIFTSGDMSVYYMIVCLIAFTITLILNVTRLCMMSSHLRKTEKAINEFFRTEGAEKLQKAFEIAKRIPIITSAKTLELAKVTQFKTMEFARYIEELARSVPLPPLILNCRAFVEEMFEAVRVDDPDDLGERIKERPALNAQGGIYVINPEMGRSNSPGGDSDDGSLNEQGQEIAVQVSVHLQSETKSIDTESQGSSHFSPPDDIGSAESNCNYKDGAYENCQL

In experiment [6] the target is T6, zinc finger protein 431, transcript variant 2 (human, UniProt Q8TF32 1-576).
T6 construct: on protein array; also called ZNF431
T6 sequence (Q8TF32 other isoform, or with tags, fused parts or gaps mutant limits assumed): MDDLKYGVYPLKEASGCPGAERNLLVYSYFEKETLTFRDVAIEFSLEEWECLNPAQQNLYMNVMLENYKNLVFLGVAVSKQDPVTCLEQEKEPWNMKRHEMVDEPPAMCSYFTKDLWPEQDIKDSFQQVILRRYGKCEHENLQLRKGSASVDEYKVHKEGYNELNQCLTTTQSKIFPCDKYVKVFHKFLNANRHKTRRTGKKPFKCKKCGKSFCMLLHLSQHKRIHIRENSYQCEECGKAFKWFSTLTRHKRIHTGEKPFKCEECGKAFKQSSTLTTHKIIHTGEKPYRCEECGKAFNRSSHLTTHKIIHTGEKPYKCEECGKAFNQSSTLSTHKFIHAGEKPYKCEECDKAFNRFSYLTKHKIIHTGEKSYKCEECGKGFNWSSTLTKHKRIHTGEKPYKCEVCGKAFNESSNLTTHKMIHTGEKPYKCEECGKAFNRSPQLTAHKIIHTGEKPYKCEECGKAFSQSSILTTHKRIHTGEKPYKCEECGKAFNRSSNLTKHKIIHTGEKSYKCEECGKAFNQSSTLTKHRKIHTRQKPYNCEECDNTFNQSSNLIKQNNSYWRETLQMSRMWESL

Another experiment addresses T7, nudix hydrolase 21 (human, UniProt O43809 2-227).
T7 construct: on protein array; also called NUDT21

The next experiment addresses T8, Zinc finger protein 699 (human, UniProt Q32M78 1-642).
T8 construct: on protein array; also called ZNF699

Experiment [7] concerns the target T9, 5-hydroxytryptamine receptor 1E (human, UniProt P28566 1-365).
T9 construct: on protein array; also called HTR1E

The target of another experiment is T10, BTB domain containing 8 (human, UniProt Q5XKL5 1-374, limits assumed).
T10 construct: on protein array; also called BTBD8
T10 sequence (Q5XKL5 other isoform, or with tags, fused parts or gaps limits assumed): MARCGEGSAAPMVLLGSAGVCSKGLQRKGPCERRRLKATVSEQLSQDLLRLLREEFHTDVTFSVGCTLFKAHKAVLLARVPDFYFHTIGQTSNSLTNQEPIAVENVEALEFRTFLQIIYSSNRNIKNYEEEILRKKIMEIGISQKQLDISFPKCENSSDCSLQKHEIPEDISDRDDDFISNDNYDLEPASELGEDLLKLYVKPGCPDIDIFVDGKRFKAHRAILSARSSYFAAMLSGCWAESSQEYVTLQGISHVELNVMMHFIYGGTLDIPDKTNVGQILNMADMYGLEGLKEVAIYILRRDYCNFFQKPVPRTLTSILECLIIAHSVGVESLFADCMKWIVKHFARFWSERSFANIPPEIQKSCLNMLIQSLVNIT

For experiment [8], the target named is T11, Jupiter microtubule associated homolog 2 (human, UniProt Q9H910 1-190).
T11 construct: on protein array; also called HN1L
T11 sequence: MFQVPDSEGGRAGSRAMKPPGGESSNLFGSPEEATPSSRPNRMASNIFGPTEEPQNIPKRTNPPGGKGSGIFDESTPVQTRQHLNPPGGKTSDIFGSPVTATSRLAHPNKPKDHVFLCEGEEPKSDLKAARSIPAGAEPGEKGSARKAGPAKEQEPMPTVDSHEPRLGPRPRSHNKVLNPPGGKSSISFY

Another experiment has as its target T12, enolase 2 (human, UniProt P09104 2-434).
T12 construct: on protein array; also called ENO2

Experiment [9] deals with T13, serpin family B member 6, transcript variant 2 (human, UniProt P35237 1-376).
T13 construct: on protein array; also called SERPINB6
T13 sequence: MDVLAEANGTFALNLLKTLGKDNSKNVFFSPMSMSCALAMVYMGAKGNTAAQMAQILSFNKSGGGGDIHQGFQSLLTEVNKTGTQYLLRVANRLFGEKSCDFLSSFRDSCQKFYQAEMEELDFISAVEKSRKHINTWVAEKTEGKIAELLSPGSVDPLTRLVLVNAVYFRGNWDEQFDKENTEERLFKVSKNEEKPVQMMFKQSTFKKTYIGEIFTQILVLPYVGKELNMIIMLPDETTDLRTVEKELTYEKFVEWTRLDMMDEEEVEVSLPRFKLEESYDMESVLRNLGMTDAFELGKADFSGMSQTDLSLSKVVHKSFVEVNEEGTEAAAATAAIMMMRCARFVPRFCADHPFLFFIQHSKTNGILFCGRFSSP

Experiment [10] has as its target T14, keratin associated protein 12-3 (human, UniProt P60328 1-96).
T14 construct: on protein array; also called KRTAP12-3
T14 sequence: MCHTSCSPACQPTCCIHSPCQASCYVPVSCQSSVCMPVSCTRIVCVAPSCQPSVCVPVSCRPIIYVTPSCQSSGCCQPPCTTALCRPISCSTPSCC

The next experiment concerns the target T15, PAGE family member 2 (human, UniProt Q7Z2X7 1-111).
T15 construct: on protein array; also called PAGE2
T15 sequence: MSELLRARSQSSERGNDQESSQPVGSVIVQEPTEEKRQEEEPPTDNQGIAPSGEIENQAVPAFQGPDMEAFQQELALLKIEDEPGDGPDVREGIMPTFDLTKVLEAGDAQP

The target of experiment [11] is T16, proteasome 26S subunit, non-ATPase 4, transcript variant 2 (human, UniProt P55036 1-377).
T16 construct: on protein array; also called PSMD4
T16 sequence (P55036 whole entry, change not shown): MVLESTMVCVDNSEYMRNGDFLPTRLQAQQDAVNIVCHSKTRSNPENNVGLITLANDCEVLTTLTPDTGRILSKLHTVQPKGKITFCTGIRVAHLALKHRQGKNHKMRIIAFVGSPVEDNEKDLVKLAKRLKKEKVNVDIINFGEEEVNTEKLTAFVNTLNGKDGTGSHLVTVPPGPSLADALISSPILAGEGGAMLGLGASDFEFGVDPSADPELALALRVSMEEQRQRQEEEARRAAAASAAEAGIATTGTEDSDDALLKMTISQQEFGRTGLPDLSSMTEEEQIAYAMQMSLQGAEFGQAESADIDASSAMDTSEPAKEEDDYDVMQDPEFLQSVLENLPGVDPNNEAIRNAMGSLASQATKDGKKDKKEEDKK

Experiment [12] addresses T17, Src like adaptor, transcript variant 1 (human, UniProt Q13239 2-276).
T17 construct: on protein array; also called SLA
T17 sequence: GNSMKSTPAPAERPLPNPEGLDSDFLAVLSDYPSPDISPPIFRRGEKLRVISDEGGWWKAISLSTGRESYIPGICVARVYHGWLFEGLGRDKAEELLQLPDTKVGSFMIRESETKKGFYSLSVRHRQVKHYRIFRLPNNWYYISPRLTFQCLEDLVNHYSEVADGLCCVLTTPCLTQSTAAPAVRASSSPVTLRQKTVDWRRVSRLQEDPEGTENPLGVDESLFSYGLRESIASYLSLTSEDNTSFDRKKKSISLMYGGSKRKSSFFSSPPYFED

T7 sequence (O43809 2-227 limits assumed): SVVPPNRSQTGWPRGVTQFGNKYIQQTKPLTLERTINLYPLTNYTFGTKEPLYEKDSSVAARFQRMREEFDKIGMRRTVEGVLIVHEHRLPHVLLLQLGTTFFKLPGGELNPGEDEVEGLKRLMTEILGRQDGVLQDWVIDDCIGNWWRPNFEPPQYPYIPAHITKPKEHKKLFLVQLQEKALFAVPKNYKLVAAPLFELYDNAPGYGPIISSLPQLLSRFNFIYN
T9 sequence (P28566 whole entry): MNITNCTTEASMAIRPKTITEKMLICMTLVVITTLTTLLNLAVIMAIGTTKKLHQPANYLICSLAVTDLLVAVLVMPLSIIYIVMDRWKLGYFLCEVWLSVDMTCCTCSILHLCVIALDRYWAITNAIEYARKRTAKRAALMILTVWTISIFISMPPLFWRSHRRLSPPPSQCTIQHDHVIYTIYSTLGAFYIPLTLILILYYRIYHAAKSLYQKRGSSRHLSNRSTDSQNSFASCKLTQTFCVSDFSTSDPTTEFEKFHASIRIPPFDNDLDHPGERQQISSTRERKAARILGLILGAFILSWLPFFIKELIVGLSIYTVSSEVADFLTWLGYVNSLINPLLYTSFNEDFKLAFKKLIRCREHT
T12 sequence (P09104 2-434 limits assumed): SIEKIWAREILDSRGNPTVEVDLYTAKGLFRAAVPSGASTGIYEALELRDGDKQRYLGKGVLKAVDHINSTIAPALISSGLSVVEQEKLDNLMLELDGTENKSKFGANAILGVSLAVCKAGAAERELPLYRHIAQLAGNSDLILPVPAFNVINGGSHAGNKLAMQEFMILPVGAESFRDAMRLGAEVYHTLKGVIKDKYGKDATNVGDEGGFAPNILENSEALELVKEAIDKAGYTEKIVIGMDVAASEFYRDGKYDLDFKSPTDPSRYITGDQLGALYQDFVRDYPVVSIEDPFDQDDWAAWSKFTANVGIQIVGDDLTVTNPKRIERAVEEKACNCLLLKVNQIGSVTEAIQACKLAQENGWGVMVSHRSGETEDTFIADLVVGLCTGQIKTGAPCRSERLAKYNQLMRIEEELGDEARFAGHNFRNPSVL
T8 sequence (Q32M78 whole entry): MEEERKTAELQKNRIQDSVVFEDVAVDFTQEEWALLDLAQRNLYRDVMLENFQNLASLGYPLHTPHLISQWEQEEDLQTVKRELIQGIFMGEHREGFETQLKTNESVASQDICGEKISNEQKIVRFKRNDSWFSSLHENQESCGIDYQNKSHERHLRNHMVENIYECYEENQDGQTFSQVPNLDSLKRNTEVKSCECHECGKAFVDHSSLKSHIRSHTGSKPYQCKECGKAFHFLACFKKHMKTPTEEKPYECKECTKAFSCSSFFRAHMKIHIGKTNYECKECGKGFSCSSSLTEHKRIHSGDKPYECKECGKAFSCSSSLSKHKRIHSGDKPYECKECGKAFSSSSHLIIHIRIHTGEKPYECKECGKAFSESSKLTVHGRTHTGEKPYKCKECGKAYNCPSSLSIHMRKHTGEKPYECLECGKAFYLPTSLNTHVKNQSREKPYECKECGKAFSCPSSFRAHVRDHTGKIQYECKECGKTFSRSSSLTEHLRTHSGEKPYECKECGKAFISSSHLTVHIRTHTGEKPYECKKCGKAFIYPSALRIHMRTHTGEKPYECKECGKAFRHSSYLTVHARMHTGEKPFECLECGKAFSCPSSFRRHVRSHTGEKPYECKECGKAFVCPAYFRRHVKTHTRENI
T1 sequence (Q15555 whole entry, change not shown): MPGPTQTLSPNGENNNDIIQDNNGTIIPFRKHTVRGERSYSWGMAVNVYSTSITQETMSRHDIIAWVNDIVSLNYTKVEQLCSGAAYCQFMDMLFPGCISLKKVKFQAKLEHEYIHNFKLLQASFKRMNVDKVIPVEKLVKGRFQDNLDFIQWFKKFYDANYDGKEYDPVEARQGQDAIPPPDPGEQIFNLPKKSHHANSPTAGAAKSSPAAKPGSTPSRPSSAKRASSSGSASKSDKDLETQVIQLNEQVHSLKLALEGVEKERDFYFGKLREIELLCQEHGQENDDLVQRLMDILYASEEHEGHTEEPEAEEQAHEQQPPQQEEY

B1: TMES1004 (antibody, V domains shown)
VH: QVQLVQSGAEVKKPGASVKISCKASGYTFTSHAIHWVRQAPGQTFEWLGWINPVNGVTKYSQTFQDRVTIVRDKSATTTYMDLSGLTFEDTAMYYCARVLDFYGSSVLDYWGQGTLVTVSS
VL: QSALTQPASVSGSPGQSITISCTGTSSDIGTYNLVSWYQQRPGKAPKLIIYDVIKRPSGISDRFSGSKSDNMASLTISGLQAEDEAHYYCCSYRSSTAPVVFGGGTKVTVL
notes: VH/VL tied via antigen in summary, not by name in this stretch
Take B1: the binding result in [1] is “binds”.

B2: TOVA1002 (antibody, V domains shown)
VH: QVQLVESGGGVVQPGRSLRLSCAASGFTFSNFAMHWVRQAPGKGLEWVVVISSDGSNKNYADSVKGRFTISRDNSKNTLYLQMNSLRAEDTAVYYCARDLGVGSTTYWGQGTLVTVSS
VL: SYVLTQPPSVSVAPGQTARITCGGNNIGSKSVHWYQQKPGQAPVLVVYDDSDRPSGIPERFSGSNSGNTATLTISRVEAGDEADYYCQVWDGYSDPLVFGGGTKLTVLG
notes: as for B1
Regarding B2, the binding result in [2] is recorded as “binds”.

B3: TMEL1041 (antibody, V domains shown)
VH: EVQLLESGGGLVQPGGSLRLSCAASGFTFRIYAMSWVRQAPGKGLEWVSAISYSGNTTYYADSVKGRFTISRDNSKNTLYLQINNLRAEDTAIYYCAIQEKRELQLRRELDNYWGQGTLVTVSS
VL: PYELTQPPSVSLSPGQTARITCSGDALPKKYAYWYQQKSGQAPVLVIYEDSKRPSGIPERFSGSSSGTTATLTISGAQVDDEGDYYCYSPDSSGNVWVFGGGTKLTVLG
notes: as for B1
Regarding B3, the binding result in experiment [3] and in experiment [4] was “binds” throughout.

B4: TBRE1002 (antibody, V domains shown)
VH: QVQLVESGGGVVQPGGSLRLSCGASGFAFSSNGMHWVRQAPGKGLEWVAFIHYDGRNKHYTDSVKGRFAISVDDSKTTLYLQMSSLKTEDTAVYYCVKDSRVTGQSSGYIFDSWGQGTLVTVSS
VL: ETVMTQSPATLSVSPGDRATLSCRASQNVNFNLAWYQQKPGQAPRLLIYDASTRATGIPARFSGSASGTEFTLTINSLQSEDFAVYYCQQYNNWWTFGQGTKLEIKR
notes: VH/VL only
As for B4, the binding result in experiment [5] is “binds”.

B5: TMEL1033 (antibody, V domains shown)
VH: PVQLQESGPGLVKPSETLSLTCTVSGGSVSSGSYYWSWIRQPPGKGLEWIGYIYYSGSTNYNPSLKSRVTISVDTSKNQFSLKLSSVTAADTAVYYCARDRGDYVTHWFDPWGQGTLVTVSS
VL: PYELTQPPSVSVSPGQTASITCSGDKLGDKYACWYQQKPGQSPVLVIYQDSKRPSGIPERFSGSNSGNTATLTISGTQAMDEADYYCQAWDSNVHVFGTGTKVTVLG
notes: as for B1
In the case of B5, the binding result (in experiment [6]; with nudix hydrolase 21; in the experiment with Zinc finger protein 699) was “binds” each time.

B6: TBLA1013 (antibody, V domains shown)
VH: EVQLLESGGGLVQPGGSLTLSCVGSRFTFSSYAMNWVRQSPGRGLEWVASISATTGSTYYTDSVEGRFTISRDNSRDTLYLQMNSLRADDTALYYCVRSFVGAVPAYPNFDFWGPGTLVTVSS
VL: PSGLTQPPSASGTPGQRVTMSCSGSSSNIGRNYVYWYQQLPGAAPKLLIYRDNQRPSGVPDRFSGSKSGTSASLAISGLRSEDEADYYCAAWDDNVSGPGFGAGTRLTVLG
notes: VH/VL only
Take B6: in experiment [7], the binding result is listed as “binds”.

B7: TMES1002 (antibody, V domains shown)
VH: QVQVVESGGGLVKPGGSLRLSCAVSGLDFRDYYVNWIRQAPGKGLEWLSYITSPGGHTSYSDSVKGRFTISRDNAKNSVYLQMDSLTVEDTAVYFCAIKEGYGLSDWGQGTLVTVSS
VL: EIVLTQSPVTLSLSPGERATLSCRASQSVSSSYIAWYQQKPGQAPRLLIYGASTRATGIPDRFSGSGSGTDFTLTISRLEPEDCAVFYCQQYGSSHYTFGQGTKLEIKR
notes: as for B1
In the case of B7, the binding result (with BTB domain containing 8; in experiment [8]) was “binds” in each case.

B8: TMEL1037 (antibody, V domains shown)
VH: PLQLQESGPGLVKPSETLSLTCTVSGGSISSSSYYWGWIRQSPGKGLEWMGSIYYSGSTYYNPSLKSRVTISVDTSKNQFSLNLSSVTAADTAVYYCARHDYRNYFDYWGQGTLVTVSS
VL: not shown
notes: as for B1
On to B8, for which the binding result in the experiment with enolase 2 is “binds”.

B9: TMEL1040 (antibody, V domains shown)
VH: EVQLVQSGAEVKKPGESLKISCKGSGYSFTTYWIAWVRQMPGKGLEWMGIIYPADSDTRYSPSFQGQVTMSADQSINTAYLQWSSLKASDTAMYYCARRGREFDYWGQGTLLTVSS
VL: QSALTQPASVSGSPGQSITISCTGTSSDVGSYNLVSWYQQHPGKAPKLMIYEGSKRPSGVSNRFSGSKSGNTASLTISGLQAEDEADYYCCSYAGSSTPWVFGGGTKLTVL
notes: as for B1
For B9, the binding result in experiment [9] is recorded as “binds”.

B10: TMEL1035 (antibody, V domains shown)
VH: QVQLVESGGGVVQPGRSLRLSCAASGFTFSSYAMHWVRQAPGKGLEWVAVISYDGSNKYYADSVKGRFTISRDNSKNTLYLQMNSLRAEDTAVYYCASPIAVAAPFAYWGQGTLVTVSS
VL: VSSELTQDPAVSVALGQTVRITCQGDSLRSYYASWYQQKPGQAPVLVIYGKNNRPSGIPDRFSGSSSGNTASLTITGAQAEDEADYYCNSRDSSGNLYVFGTGTKVTVLG
notes: as for B1
For the molecule B10, the binding result (in experiment [10]; with PAGE family member 2) was “binds” throughout.

B11: TMEL1032 (antibody, V domains shown)
VH: QVQLVQSGAEVRKPGASVKVSCKASGYTFTTYYIHWVRQAPGQGLEWMGLINPNGGTTNYAQKFQGRLSMTTDTSTNTVYMELSSLRSEDTAVYYCARKLMSGIVSRGWFDPWGQGTLVTVSS
VL: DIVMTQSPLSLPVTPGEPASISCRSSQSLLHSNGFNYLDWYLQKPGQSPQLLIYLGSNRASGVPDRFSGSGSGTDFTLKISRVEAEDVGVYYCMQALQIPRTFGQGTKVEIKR
notes: as for B1
With B11, the binding result in experiment [11] and in experiment [12] was “binds” each time.

These data come from patent publication US20220204643A1 (published 2022).
